Source: US20060045881A1 (University of Texas, published 2006)

How the values were obtained:
[1] = biological target: T1, HLA-A2.1 heavy chain with I125-labeled beta2-microglobulin (heterotrimer complex assay) (human, I125-labeled); assay: dissociation of I125-labeled beta2-microglobulin from heavy chain/peptide/beta2m complex, HPLC gel filtration
T1 construct: Cell-free assay; also called heterotrimer complex of the HLA-A2.1 heavy chain, peptide, and beta2-microglobulin

[2] = biological target: T2, HLA-A2.1 (HLA-A*0201) on the surface of T2 cells (human)
T2 construct: also called surface HLA-A2.1 on T2

Binder	T1/2 (binding half-life) [1] [h]	FI CCNE2144-152/FI PR1 (fluorescence ratio against PR1) [2] [ratio]
VLQELNVTV (Synthetic peptide, minimum 95% purity) [PR1 peptide (proteinase 3 aa 169-177, VLQELNVTV)]	24.3	
ILLDWLLEV (also called cyclin E2 peptide) [CCNE2 144-152 (cyclin E2 derived nonameric peptide)]		1.19
RLFPDFFTRV [PR2 peptide (proteinase 3 derived, RLFPDFFTRV as printed in Table 4)]	2.33	
